The values that follow come from patent US20210130491A1 (ONCOTAG DIAGNOSTICS, published 2021).

In assay [1] the target is T1, MRS fragment 7 (660~860 aa) (human, UniProt P56192 660-860).
T1 construct: not shown: Myc linked to the N-terminus
T1 sequence: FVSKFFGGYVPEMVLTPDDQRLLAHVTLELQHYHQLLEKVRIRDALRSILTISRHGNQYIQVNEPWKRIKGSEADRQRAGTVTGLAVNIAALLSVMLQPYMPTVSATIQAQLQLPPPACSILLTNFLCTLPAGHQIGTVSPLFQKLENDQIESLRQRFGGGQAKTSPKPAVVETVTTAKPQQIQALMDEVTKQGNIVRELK
Put plainly: western blot of lysate of transfected H460 cells. As for the experimental part:
(§1) Then, 2 μg of the cloned vector DNA were transfected into H460 cells using Turbofect (Thermo) according to the manufacturer's instructions. After 24 hours, cells were harvested and subjected to western blot. 1E8 antibody and 8A12 antibody were diluted 1:5000 (0.2 μg/mL) as the primary antibody.
Then, western blot was performed in the same manner as described above.
On the technique in general: A western blot detects proteins with antibodies after separation by electrophoresis.

Assay [2] concerns the target T2, AIMP3 (aminoacyl tRNA synthetase complex-interacting multifunctional protein 3) (Homo sapiens (Human), UniProt O43324 1-174, limits assumed).
T2 construct: How the AIMP3-alone protein for SPR and screening was made is not described; also called p18
T2 sequence: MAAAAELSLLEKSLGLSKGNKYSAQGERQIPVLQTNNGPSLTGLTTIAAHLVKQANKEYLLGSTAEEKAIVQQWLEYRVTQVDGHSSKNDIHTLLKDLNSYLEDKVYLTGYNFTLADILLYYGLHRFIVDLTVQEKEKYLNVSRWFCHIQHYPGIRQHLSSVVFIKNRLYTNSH
Put plainly: SPR, CM5 chip coated with AIMP3, antibody flowed at 0.20 to 200 nM. As to the method:
Surface plasmon resonance (SPR) experiments were carried out using 1E8 and 8A12 antibodies and MRS+AIMP3 protein obtained in Example 1.
CM5 chips were coated with MRS+AIMP3 or AIMP3 proteins and 1E8 or 8A12 antibodies were flowed at various concentrations to measure the degree of binding reaction with the proteins. Samples or buffers were injected for 8 minutes at a flow rate of 30 μl/min and washed for 20 minutes.
On the technique in general: In SPR one partner is held on a chip, and binding of the other changes the refractive index at the surface.

Assay [3] deals with T3, MRS fragment 1 (1~266 aa).
T3 construct: Expressed in H460 cells from pcDNA3; also called lane 1
T3 single chain: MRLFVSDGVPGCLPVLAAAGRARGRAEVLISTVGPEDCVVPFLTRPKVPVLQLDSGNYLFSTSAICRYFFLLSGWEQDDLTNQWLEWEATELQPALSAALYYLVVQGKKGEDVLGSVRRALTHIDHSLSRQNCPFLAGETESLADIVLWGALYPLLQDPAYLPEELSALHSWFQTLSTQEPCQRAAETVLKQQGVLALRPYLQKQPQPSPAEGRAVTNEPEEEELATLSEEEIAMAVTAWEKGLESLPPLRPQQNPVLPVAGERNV
The assay is described as follows: western blot of lysates of H460 cells transfected with Myc-tagged MRS fragments. As for the experimental part:
(§2) Six fragments of different lengths and positions were prepared based on the GST, catalytic domain, and tRNA binging domains of the MRS protein, and MRS protein and each of the MRS fragments were cloned into pcDNA3 vector (EV). At this time, since Myc protein is linked to the N-terminus of MRS protein, Myc protein was used as a control.
as §1

Assay [4] deals with T4, MRS fragment 2 (267~417 aa).
T4 construct: Expressed in H460 cells from pcDNA3; also called lane 2
T4 single chain: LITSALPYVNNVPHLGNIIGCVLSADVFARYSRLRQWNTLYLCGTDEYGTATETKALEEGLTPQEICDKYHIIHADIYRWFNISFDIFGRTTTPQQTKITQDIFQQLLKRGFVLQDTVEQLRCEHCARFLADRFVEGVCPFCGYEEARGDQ
The description is as above. As to the method:
as §2, §1

Assay [5] concerns the target T5, MRS fragment 3 (267~597 aa).
T5 construct: Expressed in H460 cells from pcDNA3; also called lane 3
T5 single chain: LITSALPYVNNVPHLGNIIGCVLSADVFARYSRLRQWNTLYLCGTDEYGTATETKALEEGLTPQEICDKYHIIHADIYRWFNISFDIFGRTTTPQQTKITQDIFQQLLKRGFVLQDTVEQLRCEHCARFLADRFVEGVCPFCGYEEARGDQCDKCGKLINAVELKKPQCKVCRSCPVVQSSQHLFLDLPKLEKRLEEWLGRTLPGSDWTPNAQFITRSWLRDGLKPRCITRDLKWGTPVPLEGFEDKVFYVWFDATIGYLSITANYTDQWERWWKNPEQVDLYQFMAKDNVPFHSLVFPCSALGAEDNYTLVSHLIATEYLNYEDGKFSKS
The description is as above. As for the experimental part: as §2, §1

In assay [6] the target is T6, MRS fragment 4 (1~597 aa).
T6 construct: Expressed in H460 cells from pcDNA3; also called lane 4
T6 single chain: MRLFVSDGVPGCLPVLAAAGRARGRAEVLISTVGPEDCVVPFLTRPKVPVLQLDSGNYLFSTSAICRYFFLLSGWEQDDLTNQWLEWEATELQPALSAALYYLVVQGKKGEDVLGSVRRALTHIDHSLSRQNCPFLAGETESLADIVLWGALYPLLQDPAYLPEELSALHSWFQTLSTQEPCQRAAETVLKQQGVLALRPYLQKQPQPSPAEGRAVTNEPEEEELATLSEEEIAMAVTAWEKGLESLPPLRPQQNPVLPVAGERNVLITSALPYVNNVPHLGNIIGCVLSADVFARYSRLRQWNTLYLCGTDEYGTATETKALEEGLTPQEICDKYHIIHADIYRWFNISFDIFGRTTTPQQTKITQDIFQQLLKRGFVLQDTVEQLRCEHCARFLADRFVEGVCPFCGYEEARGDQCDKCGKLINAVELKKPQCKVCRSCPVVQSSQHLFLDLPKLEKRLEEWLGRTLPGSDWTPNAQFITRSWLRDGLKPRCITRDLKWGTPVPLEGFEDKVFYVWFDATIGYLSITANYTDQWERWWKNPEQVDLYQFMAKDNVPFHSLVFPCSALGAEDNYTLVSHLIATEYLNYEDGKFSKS
The description is as above. As to the method: as §2, §1

B1: 8A12 antibody (8A12 IgG) (antibody, V domains shown)
VH: DVKLQESGPGLVKPSQSLSLTCTVTGYSITSEYAWTWIRQFPGNKLEWMGYINYNGNTNLNPSLKSRISIIRDTSKNQFFLQLNSVTTEDTATYYCARSLWPRGWFAYWGQGTLVTVSA
VL: DIQMTQSPSSMYASLGERVTITCKASQDINSYLSWFQQKPGKSPKTLMYRANRLVDGVPSRFSGSGSGQDYSLTISSLEYEDMGIYYCLQYDEFPRTFGGGTKLEIKA
notes: Mouse monoclonal from hybridoma clone 8A12; also called 8Al2; anti-MRS antibody (8A12)
Turning to B1, the binding result is “no binding (tested: 1:5000 (0.2 ug/mL))” in assay [1]; “no binding (tested: 200 nM)” in assay [2]; “no binding (tested: 0.2 µg/mL (1:5000, from paragraph 148))” in assay [3]; “no binding (tested: 0.2 µg/mL (1:5000, from paragraph 148))” in assay [4]; “no binding (tested: 0.2 µg/mL (1:5000, from paragraph 148))” in assay [5]; “no binding (tested: 0.2 µg/mL (1:5000, from paragraph 148))” in assay [6].

B2: 1E8 antibody (1E8 IgG) (antibody, V domains shown)
VH: DVKLQESGPGLVNPSQSLSLTCTVTGYSITSDYAWNWIRQFPGNKLEWMGYISYSGRTSYKSSLKSRISITRDTSKNQFFLELNSVTTEDTATYYCARDYGNFVGYFDVWGAGTTVTVSS
VL: DIVMTQSPSSLAVSVGEKVTMSCKSSQSLLYSSNQKNYLAWYQQKPGQSPKLLIYWASTRESGVPDRFTGSGSGTEFTLTISSVKAEDLAVYYCQQYYSYPTFGGGTKLEIKA
notes: Mouse monoclonal from hybridoma clone 1E8; also called IE8; anti-MRS antibody (1E8)
With B2, the binding result in assay [1] is “no binding (tested: 1:5000 (0.2 ug/mL))”; in assay [2], “no binding (tested: 200 nM)”; in assay [3], “no binding (tested: 0.2 µg/mL (1:5000, from paragraph 148))”; in assay [4], “no binding (tested: 0.2 µg/mL (1:5000, from paragraph 148))”; in assay [5], “no binding (tested: 0.2 µg/mL (1:5000, from paragraph 148))”; in assay [6] it was “no binding (tested: 0.2 µg/mL (1:5000, from paragraph 148))”.
